Measurements taken from patent publication US5622828.

Tests used:
Assay in all cases: filter
[1] = system: immunoglobulin G (IgG) (Homo sapiens); conditions: 2'-NH2 all C and U, TBSC
[2] = target: T1, secretory phospholipase A2 (sPLA2) (Homo sapiens) (UniProt P14555); conditions: TBSC, 37 C
T1 sequence: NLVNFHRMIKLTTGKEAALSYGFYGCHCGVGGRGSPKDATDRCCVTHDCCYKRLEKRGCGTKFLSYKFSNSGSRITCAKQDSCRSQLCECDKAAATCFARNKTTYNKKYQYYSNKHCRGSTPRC

[3] = target: basic fibroblast growth factor (bFGF) (Homo sapiens) (UniProt P09038); conditions: random pool, TBSC
Chain of basic fibroblast growth factor (bFGF) (Homo sapiens) (P09038 143-288): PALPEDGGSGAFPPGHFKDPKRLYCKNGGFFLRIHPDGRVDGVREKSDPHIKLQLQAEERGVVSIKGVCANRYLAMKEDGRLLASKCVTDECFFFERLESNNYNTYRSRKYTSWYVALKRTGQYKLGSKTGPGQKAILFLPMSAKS

[4] = target: pancreatic phospholipase A2 (bpPLA2) (Bos taurus) (UniProt P00593); conditions: random pool; TBSC
Chain of pancreatic phospholipase A2 (bpPLA2) (Bos taurus) (P00593 23-145): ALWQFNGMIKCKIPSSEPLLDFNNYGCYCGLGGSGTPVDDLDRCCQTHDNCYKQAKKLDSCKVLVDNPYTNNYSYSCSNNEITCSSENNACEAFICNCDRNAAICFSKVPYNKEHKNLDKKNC

[5] = target: lysozyme (egg white) (Gallus gallus) (UniProt P00698); conditions: random pool; TBSC
Chain of lysozyme (egg white) (Gallus gallus) (P00698 19-147): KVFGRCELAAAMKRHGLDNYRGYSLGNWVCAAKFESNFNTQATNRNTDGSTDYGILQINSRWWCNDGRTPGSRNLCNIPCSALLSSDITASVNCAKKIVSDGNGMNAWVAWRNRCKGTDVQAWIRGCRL

[6] = target: T2, neutrophil elastase (Homo sapiens) (UniProt P08246); conditions: 2'-NH2 all C and U; random pool; TBSC
T2 sequence: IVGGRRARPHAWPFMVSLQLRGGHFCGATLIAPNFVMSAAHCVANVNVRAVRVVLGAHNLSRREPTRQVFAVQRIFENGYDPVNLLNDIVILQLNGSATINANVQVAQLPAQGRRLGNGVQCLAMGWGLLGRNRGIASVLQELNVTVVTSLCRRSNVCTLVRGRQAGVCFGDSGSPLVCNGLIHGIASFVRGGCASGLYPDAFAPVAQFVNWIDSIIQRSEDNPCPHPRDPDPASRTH

[7] = target: C1q (printed Clq) (Homo sapiens) (UniProt P02745+P02746+P02747); conditions: 2'-NH2 all C and U; random pool; TBSC
Chain of C1q (printed Clq) (Homo sapiens) (P02745 23-245, chain 1 of 3): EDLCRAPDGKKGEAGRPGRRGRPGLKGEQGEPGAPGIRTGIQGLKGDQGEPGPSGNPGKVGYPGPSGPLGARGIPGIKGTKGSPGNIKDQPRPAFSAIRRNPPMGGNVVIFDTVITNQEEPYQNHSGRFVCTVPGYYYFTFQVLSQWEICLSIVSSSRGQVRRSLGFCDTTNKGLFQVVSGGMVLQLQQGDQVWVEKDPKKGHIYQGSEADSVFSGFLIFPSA
Chain of C1q (printed Clq) (Homo sapiens) (P02746 28-253, chain 2 of 3): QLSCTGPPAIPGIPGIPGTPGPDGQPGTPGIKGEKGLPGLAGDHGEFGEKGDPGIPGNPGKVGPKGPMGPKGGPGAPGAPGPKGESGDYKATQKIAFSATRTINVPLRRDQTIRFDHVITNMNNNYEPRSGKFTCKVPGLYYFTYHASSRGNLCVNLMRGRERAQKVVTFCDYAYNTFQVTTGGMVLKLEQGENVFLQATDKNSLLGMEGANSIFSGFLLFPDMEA
Chain of C1q (printed Clq) (Homo sapiens) (P02747 29-245, chain 3 of 3): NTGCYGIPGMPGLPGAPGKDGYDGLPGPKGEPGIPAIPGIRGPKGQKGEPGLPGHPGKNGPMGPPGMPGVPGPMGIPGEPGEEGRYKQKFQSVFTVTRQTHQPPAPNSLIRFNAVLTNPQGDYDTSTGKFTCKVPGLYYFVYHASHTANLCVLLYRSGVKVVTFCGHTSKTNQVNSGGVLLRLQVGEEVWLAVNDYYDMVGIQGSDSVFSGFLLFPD

[8] = 2'-NH2 all C and U, random starting pool

GGGAAAAGCGAAUCAUACACAAGACCGGCCGGCGCCAUAGCCGAGAUCCGAGGUGUUGAACGAUAACUCGGUGCUCCGCCAGAGACCAACCGAGAA [NN19]
Kd ([1]; specificity control): > 5000 nM

GGGAAAAGAAGACCGGCCGGCGCCAUAGCCGAGAUCCGAGGUGUUGCCGAGAA [NN19.15]
Kd ([1]; specificity control, like random RNA): 4300 nM

GGGAGCUCAGAAUAAACGCUCAAGANCUCUGCUUACAGCCCGGCUGGGACACUUCGACAUGAGGCCCGGAUCCGGC [75t (75)]
Kd ([2]; biphasic, Kd2 420 nM, mole fraction 0.40): 0.9 nM

GGGAGCUCAGAAUAAACGCUCAANNNNNNNNNNNNNNNNNNNNNNNNNNNNNNUUCGACAUGAGGCCCGGAUCCGGC [30N1 random RNA]
Kd [3]: 270 nM
Kd [4]: 22500 nM
Kd [5]: 1650 nM
Kd ([2]; random pool, text of Example 2 gives 240 nM): 360 nM

GGGAGCUCAGAAUAAACGCUCAANNNNNNNNNNNNNNNNNNNNNNNNNNNNNNUUCGACAUGAGGCCCGGAUCCGGC [30N1F random RNA]
Kd ([2]; 2'-F all C and U, random 2'-F pool): 35 nM

GGGAGGACGAUGCGGNNNNNNNNNNNNNNNNNNNNNNNNNNNNNNNNNNNNNNNNNNNNNNNNNNCAGACGACUCGCCCGA [50N7 random RNA]
Kd [2, 8]: 71 nM

GGGAAAAGCGAAUCAUACACAAGANNNNNNNNNNNNNNNNNNNNNNNNNNNNNNNNNNNNNNNNNNNNNNNNNNGCUCCGCCAGAGACCAACCGAGAA [50N9 random RNA]
Kd ([3]; 2'-NH2 all C and U): 170 nM
Kd [6]: 70 nM
Kd [7]: 1000 nM
Kd ([1]; random pool): > 5000 nM
Kd [2, 8]: 48 nM
